Source: patent US20170014527A1

Columns and labels:
human Trop-2 (human) [1] = target: human Trop-2 (human) (UniProt P09758); experiment: cell binding assay, cell line not stated
human Trop-2 (human) [2] = target: human Trop-2 (human) (UniProt P09758); experiment: cell binding on NCI-N87 cells, anti-mouse-HRP, luminescence
human Trop-2 (human) [3] = target: human Trop-2 (human) (UniProt P09758); experiment: cell binding on NCI-N87 cells, Bmax against murine RS7 as reference
human Trop-2 (human) [4] = target: human Trop-2 (human) (UniProt P09758); experiment: cell binding on NCI-N87 cells, 0.03 to 66 nM antibody, anti-mouse-HRP, luminescence
human Trop-2 (human) [5] = target: human Trop-2 (human) (UniProt P09758); experiment: cell-based or functional assay

Chain of human Trop-2 (human) (P09758 27-323): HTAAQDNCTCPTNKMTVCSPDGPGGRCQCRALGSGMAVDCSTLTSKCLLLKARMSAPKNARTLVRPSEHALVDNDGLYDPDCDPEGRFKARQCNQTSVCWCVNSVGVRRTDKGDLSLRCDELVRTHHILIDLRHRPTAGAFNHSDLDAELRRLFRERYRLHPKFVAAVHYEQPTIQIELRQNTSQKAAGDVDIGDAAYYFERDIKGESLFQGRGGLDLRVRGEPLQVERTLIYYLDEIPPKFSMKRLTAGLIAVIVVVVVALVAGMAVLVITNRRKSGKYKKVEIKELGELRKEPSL

Row | Kd (human Trop-2 (human) [1]) [pM] | maximum binding (Bmax) (relative luminescent units) (human Trop-2 (human) [2]) | reduction of maximum binding (Bmax) compared to RS7 (human Trop-2 (human) [3]) [%] | Kd (human Trop-2 (human) [4]) [pM] | ADCC, specific lysis of BxPC-3 cells by PBMCs (effector to target 100:1, antibody 33.3 nM) (human Trop-2 (human) [5]) [%] | Substance
1 | – | 6020 | 50 | 490 | – | MAB650 murine monoclonal antibody against human Trop-2 (R&D Systems)
2 | – | – | – | – | 8.5 | humanized RS7 (hRS7) anti-Trop-2 antibody, unconjugated IgG

The remaining lines, values behind:

Row | Substance | Kd (human Trop-2 (human) [1]) [pM] | maximum binding (Bmax) (relative luminescent units) (human Trop-2 (human) [2]) | reduction of maximum binding (Bmax) compared to RS7 (human Trop-2 (human) [3]) [%] | Kd (human Trop-2 (human) [4]) [pM] | ADCC, specific lysis of BxPC-3 cells by PBMCs (effector to target 100:1, antibody 33.3 nM) (human Trop-2 (human) [5]) [%]
3 | hRS7-CL2A-SN-38 (hRS7 IgG conjugated to SN-38 by the CL2A linker) (antibody) | 1200 | – | – | – | –
4 | hRS7-CL2-SN-38 (hRS7 IgG conjugated to SN-38 by the CL2 linker) (antibody) | 1200 | – | – | – | –
5 | 162-46.2 murine monoclonal antibody against human Trop-2 | – | 8470 | 25 | 520 | –
